This is an account of results in patent US20060105444.

The target in data set [1] is human Factor IX EGF domain mutant EGF.AG (UniProt P00740).
In data set [2] the target is human Factor IX EGF domain mutant EGF.AA (UniProt P00740).
Data set [3] concerns the target human Factor IX EGF domain (wild type) (UniProt P00740).
Data set [4] concerns the target human Factor IX EGF domain mutant EGF.GA (UniProt P00740).

Chain of human Factor IX EGF domain mutant EGF.AA (P00740 other isoform, or with tags, fused parts or gaps mutant): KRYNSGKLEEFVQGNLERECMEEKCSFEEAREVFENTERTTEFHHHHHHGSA
Chain of human Factor IX EGF domain mutant EGF.GA (P00740 other isoform, or with tags, fused parts or gaps mutant): as above
Chain of human Factor IX EGF domain mutant EGF.AG (P00740 other isoform, or with tags, fused parts or gaps mutant): as above
Chain of human Factor IX EGF domain (wild type) (P00740 other isoform, or with tags, fused parts or gaps): as the sequence (P00740 other isoform, or with tags, fused parts or gaps mutant) above

On to “O-fucosyltransferase purified from CHO cells”, for which the Fucose (cpm) came out at 4580 cpm in data set [1], 1820 cpm in data set [2], 12100 cpm in data set [3] and 6480 cpm in data set [4]. Further, in data set [2], the “RP-HPLC with electrospray mass spectrometry of the fucosylation product” value is “only one of the four differently folded species served as an acceptor substrate for the O-fucosyltransferase”.
